Results published in patent US20180155451A1 (published 2018).

T1: FcγRIIb extracellular domain with C-terminal His tag (human, UniProt P31994 43-217)
T1 construct: extracellular domain; expressed in FreeStyle293 cells; analyte in the Biacore assay; also called FcgRIIb; 2b; not shown: His tag at the C terminus
T1 sequence (looked up): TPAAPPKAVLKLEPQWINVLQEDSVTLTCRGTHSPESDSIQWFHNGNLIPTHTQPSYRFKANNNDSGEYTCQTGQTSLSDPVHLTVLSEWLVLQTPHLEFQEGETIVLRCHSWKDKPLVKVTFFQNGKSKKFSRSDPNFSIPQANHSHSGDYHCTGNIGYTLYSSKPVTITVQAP


Biological target: T1, FcγRIIb extracellular domain with …
Experiment: SPR (Biacore), captured antibody, FcγRIIb analyte; binding relative to GpH7-B3/GpL16-k0 = 100

Ho/Con_2b	Binder
103 % of control	GpH7-B3 variant I336_08L/GpL16-k0 (antibody, human IgG1, kappa, homodimerized; mutation in both H chains; also called Ho Ab I336_08L) heavy: not shown light: DIVMTQSPLSLPVTPGEPASISCQASESLVHSNRNTYLHWYLQKPGQSPQLLIYKVSNRFSGVPDRFSGSGSGTDFTLKISRVEAEDVGVYYCSQNTHVPPTFGQGTKVEIERTVAAPSVFIFPPSDEQLKSGTASVVCLLNNFYPREAKVQWKVDNALQSGNSQESVTEQDSKDSTYSLSSTLTLSKADYEKHKVYACEVTHQGLSSPVTKSFNRGEC
110 % of control	GpH7-B3 variant K334_02A/GpL16-k0 (antibody, human IgG1, kappa, homodimerized; mutation in both H chains; also called Ho Ab K334_02A) heavy: not shown light: DIVMTQSPLSLPVTPGEPASISCQASESLVHSNRNTYLHWYLQKPGQSPQLLIYKVSNRFSGVPDRFSGSGSGTDFTLKISRVEAEDVGVYYCSQNTHVPPTFGQGTKVEIERTVAAPSVFIFPPSDEQLKSGTASVVCLLNNFYPREAKVQWKVDNALQSGNSQESVTEQDSKDSTYSLSSTLTLSKADYEKHKVYACEVTHQGLSSPVTKSFNRGEC
162 % of control	GpH7-B3 variant K326_15Y/GpL16-k0 (antibody, human IgG1, kappa, homodimerized; mutation in both H chains; also called Ho Ab K326_15Y) heavy: not shown light: DIVMTQSPLSLPVTPGEPASISCQASESLVHSNRNTYLHWYLQKPGQSPQLLIYKVSNRFSGVPDRFSGSGSGTDFTLKISRVEAEDVGVYYCSQNTHVPPTFGQGTKVEIERTVAAPSVFIFPPSDEQLKSGTASVVCLLNNFYPREAKVQWKVDNALQSGNSQESVTEQDSKDSTYSLSSTLTLSKADYEKHKVYACEVTHQGLSSPVTKSFNRGEC
160 % of control	GpH7-B3 variant K326_04F/GpL16-k0 (antibody, human IgG1, kappa, homodimerized; mutation in both H chains; also called Ho Ab K326_04F) heavy: not shown light: DIVMTQSPLSLPVTPGEPASISCQASESLVHSNRNTYLHWYLQKPGQSPQLLIYKVSNRFSGVPDRFSGSGSGTDFTLKISRVEAEDVGVYYCSQNTHVPPTFGQGTKVEIERTVAAPSVFIFPPSDEQLKSGTASVVCLLNNFYPREAKVQWKVDNALQSGNSQESVTEQDSKDSTYSLSSTLTLSKADYEKHKVYACEVTHQGLSSPVTKSFNRGEC
240 % of control	GpH7-B3 variant K326_09D/GpL16-k0 (antibody, human IgG1, kappa, homodimerized; mutation in both H chains; also called Ho Ab K326_09D) heavy: not shown light: DIVMTQSPLSLPVTPGEPASISCQASESLVHSNRNTYLHWYLQKPGQSPQLLIYKVSNRFSGVPDRFSGSGSGTDFTLKISRVEAEDVGVYYCSQNTHVPPTFGQGTKVEIERTVAAPSVFIFPPSDEQLKSGTASVVCLLNNFYPREAKVQWKVDNALQSGNSQESVTEQDSKDSTYSLSSTLTLSKADYEKHKVYACEVTHQGLSSPVTKSFNRGEC
115 % of control	GpH7-B3 variant K334_04F/GpL16-k0 (antibody, human IgG1, kappa, homodimerized; mutation in both H chains; also called Ho Ab K334_04F) heavy: not shown light: DIVMTQSPLSLPVTPGEPASISCQASESLVHSNRNTYLHWYLQKPGQSPQLLIYKVSNRFSGVPDRFSGSGSGTDFTLKISRVEAEDVGVYYCSQNTHVPPTFGQGTKVEIERTVAAPSVFIFPPSDEQLKSGTASVVCLLNNFYPREAKVQWKVDNALQSGNSQESVTEQDSKDSTYSLSSTLTLSKADYEKHKVYACEVTHQGLSSPVTKSFNRGEC
112 % of control	GpH7-B3 variant K334_05P/GpL16-k0 (antibody, human IgG1, kappa, homodimerized; mutation in both H chains; also called Ho Ab K334_05P) heavy: not shown light: DIVMTQSPLSLPVTPGEPASISCQASESLVHSNRNTYLHWYLQKPGQSPQLLIYKVSNRFSGVPDRFSGSGSGTDFTLKISRVEAEDVGVYYCSQNTHVPPTFGQGTKVEIERTVAAPSVFIFPPSDEQLKSGTASVVCLLNNFYPREAKVQWKVDNALQSGNSQESVTEQDSKDSTYSLSSTLTLSKADYEKHKVYACEVTHQGLSSPVTKSFNRGEC
237 % of control	GpH7-B3 variant K326_10E/GpL16-k0 (antibody, human IgG1, kappa, homodimerized; mutation in both H chains; also called Ho Ab K326_10E) heavy: not shown light: DIVMTQSPLSLPVTPGEPASISCQASESLVHSNRNTYLHWYLQKPGQSPQLLIYKVSNRFSGVPDRFSGSGSGTDFTLKISRVEAEDVGVYYCSQNTHVPPTFGQGTKVEIERTVAAPSVFIFPPSDEQLKSGTASVVCLLNNFYPREAKVQWKVDNALQSGNSQESVTEQDSKDSTYSLSSTLTLSKADYEKHKVYACEVTHQGLSSPVTKSFNRGEC
131 % of control	GpH7-B3 variant K326_16H/GpL16-k0 (antibody, human IgG1, kappa, homodimerized; mutation in both H chains; also called Ho Ab K326_16H) heavy: not shown light: DIVMTQSPLSLPVTPGEPASISCQASESLVHSNRNTYLHWYLQKPGQSPQLLIYKVSNRFSGVPDRFSGSGSGTDFTLKISRVEAEDVGVYYCSQNTHVPPTFGQGTKVEIERTVAAPSVFIFPPSDEQLKSGTASVVCLLNNFYPREAKVQWKVDNALQSGNSQESVTEQDSKDSTYSLSSTLTLSKADYEKHKVYACEVTHQGLSSPVTKSFNRGEC
193 % of control	GpH7-B3 variant K326_06M/GpL16-k0 (antibody, human IgG1, kappa, homodimerized; mutation in both H chains; also called Ho Ab K326_06M) heavy: not shown light: DIVMTQSPLSLPVTPGEPASISCQASESLVHSNRNTYLHWYLQKPGQSPQLLIYKVSNRFSGVPDRFSGSGSGTDFTLKISRVEAEDVGVYYCSQNTHVPPTFGQGTKVEIERTVAAPSVFIFPPSDEQLKSGTASVVCLLNNFYPREAKVQWKVDNALQSGNSQESVTEQDSKDSTYSLSSTLTLSKADYEKHKVYACEVTHQGLSSPVTKSFNRGEC
138 % of control	GpH7-B3 variant K334_14T/GpL16-k0 (antibody, human IgG1, kappa, homodimerized; mutation in both H chains; also called Ho Ab K334_14T) heavy: not shown light: DIVMTQSPLSLPVTPGEPASISCQASESLVHSNRNTYLHWYLQKPGQSPQLLIYKVSNRFSGVPDRFSGSGSGTDFTLKISRVEAEDVGVYYCSQNTHVPPTFGQGTKVEIERTVAAPSVFIFPPSDEQLKSGTASVVCLLNNFYPREAKVQWKVDNALQSGNSQESVTEQDSKDSTYSLSSTLTLSKADYEKHKVYACEVTHQGLSSPVTKSFNRGEC
132 % of control	GpH7-B3 variant K326_20W/GpL16-k0 (antibody, human IgG1, kappa, homodimerized; mutation in both H chains; also called Ho Ab K326_20W) heavy: not shown light: DIVMTQSPLSLPVTPGEPASISCQASESLVHSNRNTYLHWYLQKPGQSPQLLIYKVSNRFSGVPDRFSGSGSGTDFTLKISRVEAEDVGVYYCSQNTHVPPTFGQGTKVEIERTVAAPSVFIFPPSDEQLKSGTASVVCLLNNFYPREAKVQWKVDNALQSGNSQESVTEQDSKDSTYSLSSTLTLSKADYEKHKVYACEVTHQGLSSPVTKSFNRGEC
117 % of control	GpH7-B3 variant K334_13S/GpL16-k0 (antibody, human IgG1, kappa, homodimerized; mutation in both H chains; also called Ho Ab K334_13S) heavy: not shown light: DIVMTQSPLSLPVTPGEPASISCQASESLVHSNRNTYLHWYLQKPGQSPQLLIYKVSNRFSGVPDRFSGSGSGTDFTLKISRVEAEDVGVYYCSQNTHVPPTFGQGTKVEIERTVAAPSVFIFPPSDEQLKSGTASVVCLLNNFYPREAKVQWKVDNALQSGNSQESVTEQDSKDSTYSLSSTLTLSKADYEKHKVYACEVTHQGLSSPVTKSFNRGEC
163 % of control	GpH7-B3 variant K326_19Q/GpL16-k0 (antibody, human IgG1, kappa, homodimerized; mutation in both H chains; label printed K326_190, read as K326_19Q; also called Ho Ab K326_19Q) heavy: not shown light: DIVMTQSPLSLPVTPGEPASISCQASESLVHSNRNTYLHWYLQKPGQSPQLLIYKVSNRFSGVPDRFSGSGSGTDFTLKISRVEAEDVGVYYCSQNTHVPPTFGQGTKVEIERTVAAPSVFIFPPSDEQLKSGTASVVCLLNNFYPREAKVQWKVDNALQSGNSQESVTEQDSKDSTYSLSSTLTLSKADYEKHKVYACEVTHQGLSSPVTKSFNRGEC
116 % of control	GpH7-B3 variant L235_20W/GpL16-k0 (antibody, human IgG1, kappa, homodimerized; mutation in both H chains; also called Ho Ab L235_20W) heavy: not shown light: DIVMTQSPLSLPVTPGEPASISCQASESLVHSNRNTYLHWYLQKPGQSPQLLIYKVSNRFSGVPDRFSGSGSGTDFTLKISRVEAEDVGVYYCSQNTHVPPTFGQGTKVEIERTVAAPSVFIFPPSDEQLKSGTASVVCLLNNFYPREAKVQWKVDNALQSGNSQESVTEQDSKDSTYSLSSTLTLSKADYEKHKVYACEVTHQGLSSPVTKSFNRGEC
129 % of control	GpH7-B3 variant K334_10E/GpL16-k0 (antibody, human IgG1, kappa, homodimerized; mutation in both H chains; also called Ho Ab K334_10E) heavy: not shown light: DIVMTQSPLSLPVTPGEPASISCQASESLVHSNRNTYLHWYLQKPGQSPQLLIYKVSNRFSGVPDRFSGSGSGTDFTLKISRVEAEDVGVYYCSQNTHVPPTFGQGTKVEIERTVAAPSVFIFPPSDEQLKSGTASVVCLLNNFYPREAKVQWKVDNALQSGNSQESVTEQDSKDSTYSLSSTLTLSKADYEKHKVYACEVTHQGLSSPVTKSFNRGEC
145 % of control	GpH7-B3 variant K334_03V/GpL16-k0 (antibody, human IgG1, kappa, homodimerized; mutation in both H chains; also called Ho Ab K334_03V) heavy: not shown light: DIVMTQSPLSLPVTPGEPASISCQASESLVHSNRNTYLHWYLQKPGQSPQLLIYKVSNRFSGVPDRFSGSGSGTDFTLKISRVEAEDVGVYYCSQNTHVPPTFGQGTKVEIERTVAAPSVFIFPPSDEQLKSGTASVVCLLNNFYPREAKVQWKVDNALQSGNSQESVTEQDSKDSTYSLSSTLTLSKADYEKHKVYACEVTHQGLSSPVTKSFNRGEC
184 % of control	GpH7-B3 variant K326_03V/GpL16-k0 (antibody, human IgG1, kappa, homodimerized; mutation in both H chains; also called Ho Ab K326_03V) heavy: not shown light: DIVMTQSPLSLPVTPGEPASISCQASESLVHSNRNTYLHWYLQKPGQSPQLLIYKVSNRFSGVPDRFSGSGSGTDFTLKISRVEAEDVGVYYCSQNTHVPPTFGQGTKVEIERTVAAPSVFIFPPSDEQLKSGTASVVCLLNNFYPREAKVQWKVDNALQSGNSQESVTEQDSKDSTYSLSSTLTLSKADYEKHKVYACEVTHQGLSSPVTKSFNRGEC
137 % of control	GpH7-B3 variant K334_07I/GpL16-k0 (antibody, human IgG1, kappa, homodimerized; mutation in both H chains; also called Ho Ab K334_07I) heavy: not shown light: DIVMTQSPLSLPVTPGEPASISCQASESLVHSNRNTYLHWYLQKPGQSPQLLIYKVSNRFSGVPDRFSGSGSGTDFTLKISRVEAEDVGVYYCSQNTHVPPTFGQGTKVEIERTVAAPSVFIFPPSDEQLKSGTASVVCLLNNFYPREAKVQWKVDNALQSGNSQESVTEQDSKDSTYSLSSTLTLSKADYEKHKVYACEVTHQGLSSPVTKSFNRGEC
114 % of control	GpH7-B3 variant K334_08L/GpL16-k0 (antibody, human IgG1, kappa, homodimerized; mutation in both H chains; also called Ho Ab K334_08L) heavy: not shown light: DIVMTQSPLSLPVTPGEPASISCQASESLVHSNRNTYLHWYLQKPGQSPQLLIYKVSNRFSGVPDRFSGSGSGTDFTLKISRVEAEDVGVYYCSQNTHVPPTFGQGTKVEIERTVAAPSVFIFPPSDEQLKSGTASVVCLLNNFYPREAKVQWKVDNALQSGNSQESVTEQDSKDSTYSLSSTLTLSKADYEKHKVYACEVTHQGLSSPVTKSFNRGEC
177 % of control	GpH7-B3 variant K326_14T/GpL16-k0 (antibody, human IgG1, kappa, homodimerized; mutation in both H chains; also called Ho Ab K326_14T) heavy: not shown light: DIVMTQSPLSLPVTPGEPASISCQASESLVHSNRNTYLHWYLQKPGQSPQLLIYKVSNRFSGVPDRFSGSGSGTDFTLKISRVEAEDVGVYYCSQNTHVPPTFGQGTKVEIERTVAAPSVFIFPPSDEQLKSGTASVVCLLNNFYPREAKVQWKVDNALQSGNSQESVTEQDSKDSTYSLSSTLTLSKADYEKHKVYACEVTHQGLSSPVTKSFNRGEC
168 % of control	GpH7-B3 variant K326_08L/GpL16-k0 (antibody, human IgG1, kappa, homodimerized; mutation in both H chains; also called Ho Ab K326_08L) heavy: not shown light: DIVMTQSPLSLPVTPGEPASISCQASESLVHSNRNTYLHWYLQKPGQSPQLLIYKVSNRFSGVPDRFSGSGSGTDFTLKISRVEAEDVGVYYCSQNTHVPPTFGQGTKVEIERTVAAPSVFIFPPSDEQLKSGTASVVCLLNNFYPREAKVQWKVDNALQSGNSQESVTEQDSKDSTYSLSSTLTLSKADYEKHKVYACEVTHQGLSSPVTKSFNRGEC
